Data taken from the supplement of paper PMC10567573.

B1: NCK2 (parent)
chain: YVERKNSLKKGSLVKNLKDTLGLG

Variants of: B1
Experiment: protein stability index of a GFP-peptide fusion (GPS, HEK-293T) (PSI 1-6); higher = more stable
Conditions: c terminus: a fixed tail appended
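Further: lentivirally expressed fusions sorted by FACS into six bins by GFP to DsRed ratio, PSI derived from sequencing read proportions per bin multiplied by bin number.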

Protein stability index of substitutions, site by site:
V14: A 2.53 | M 2.46 | W 1.89 | I 2.35 | H 1.84 | P 2.3 | N 2.44 | E 2.16 | Q 2.74 | L 2.31 | G 2.04
K10: Y 1.68 | P 1.88 | I 1.89 | M 1.94 | S 2.31 | C 2.29 | E 2.29 | T 1.82 | F 2.48 | V 2.04 | N 1.83 | R 2.17 | H 1.82 | A 2.11 | W 1.78 | G 1.93 | L 2.17 | D 2.56 | Q 2.59
G11: Y 1.59 | L 1.87 | D 2.44 | V 2.42 | P 2.11 | K 2.9 | H 2.02 | Q 3.13 | N 2.4 | T 2.06 | R 2.32 | C 2.09 | F 2.69 | A 2.18 | E 2.72 | S 2.43 | I 1.68 | W 1.93 | M 1.8
K15: T 2.56 | I 1.77 | Y 1.91 | G 2.49 | H 2.23 | Q 2 | A 2.09 | F 1.69 | V 1.94 | N 2.41 | L 2.36 | P 1.99 | R 1.81 | E 2.81 | M 2.47 | D 2.7 | S 2.26 | C 2.12 | W 1.98
V2: I 2.84 | G 3.19 | K 3.67 | Q 3.39 | C 2.47 | D 3.38 | T 3.44 | L 2.71 | W 2.49 | S 2.94 | P 3.81 | E 4.17 | F 2.44 | N 3.59 | M 2.81 | R 3.41 | A 3.09 | H 2.66 | Y 3.01
D19: E 2.43 | C 2.11 | F 2.24 | A 2
L17: H 2.34 | E 2.85 | C 2.55 | P 2.13 | Q 3.16 | D 2.92 | M 2.78 | Y 2.73 | I 2.43 | T 2.79 | G 2.88 | N 2.77 | A 2.62 | S 2.41 | F 1.87 | W 1.69 | V 2.8 | K 3 | R 2.58
K9: P 2.05 | M 1.92 | C 1.94 | Y 2.28 | L 3.07 | D 2.37 | S 2.84 | Q 2.32 | W 2.37 | H 2.1 | G 2.39 | V 2.48 | N 2.32 | F 3.15 | I 2.51 | T 2.17 | E 2.59 | R 2.54 | A 2.15
S7: P 1.82 | T 2.16 | R 2.22 | H 2.02 | E 2.9 | Y 1.74 | W 3.27 | K 2.84 | D 2.57 | I 1.86 | M 1.88 | F 2.66 | L 2.43 | G 1.99 | N 2.07 | A 2.29 | V 1.94 | Q 2.15 | C 2.22
N6: T 1.94 | I 2.39 | G 2.38 | E 2.85 | A 2.24 | F 1.58 | Y 1.64 | S 2.1 | M 2.29 | K 2.67 | H 2.61 | P 2.28 | D 2.74 | W 2.32 | R 2.25 | V 1.58 | L 1.1 | C 1.73 | Q 2.53
